IntAct's records for PubMed 24980795

B1: Probable serine/threonine-protein kinase zyg-1 (Caenorhabditis elegans), Q9GT24 (parent)
chain: MSGGKSGSRLSAYSHLKEIGKGGFGVVYAAQRENGEKVAIKRIDKKVPKNRVWTEIQTMKELKKSKYVVEFYEDFVEDGYTYIVMELCEGGSLQAYVREHGALDDATAVHVLRQLISAVSFMHRVNVIHRDLSAGNVFIKDSKKKKMTVKLGDFGLATTLGRGETTCTIVGTPGFIAPQVYDQEYTQSADVYSLGAVLYTMLTARNPPPKGLPPTCGMSPNAARLVEQMMDTDAKKRIPLTQIVLSEFMYENTNENAVIFSREHSRDGRRQRSREPVRSSRDDRSRDGRALIRSSSQPAHSGRAPLSNRPIHDRMPSTSSRGFDSERGRERDRDSGRGTVPPSREDRNRSQLWPIRMDRLEGQRVCTAGGRYIVELDTRCRFEVAAQGNFVKRILIVEVDEMVQTVYVHRIPDRTVRGRNGEEELITLTNNPFVYTSYSQMPKEVQNDYMRLQKMVAVTISGRVAKVTFRRPSQFPDAQAQLMENGDLRIKLPRSVIVRKMDNGEIFNCIDGIATQKQAVSGITLTKVNEVYKYLIRFEQCLNGMDRGMVCFPIVFSAGTNMVGSSPSSLMPSGSSQTSRFPFSNLSNNQPSLVPHSAPFLTKPTSSQRASSANVQRRVSTDENSSPSVAPSKYKIKIDPTTQKVRSIQATDGRVLRCSTSKADQFIFTDPAIRPDDQRFMRTDRVPDRASEMLHTLCERMRKLHQ
partner: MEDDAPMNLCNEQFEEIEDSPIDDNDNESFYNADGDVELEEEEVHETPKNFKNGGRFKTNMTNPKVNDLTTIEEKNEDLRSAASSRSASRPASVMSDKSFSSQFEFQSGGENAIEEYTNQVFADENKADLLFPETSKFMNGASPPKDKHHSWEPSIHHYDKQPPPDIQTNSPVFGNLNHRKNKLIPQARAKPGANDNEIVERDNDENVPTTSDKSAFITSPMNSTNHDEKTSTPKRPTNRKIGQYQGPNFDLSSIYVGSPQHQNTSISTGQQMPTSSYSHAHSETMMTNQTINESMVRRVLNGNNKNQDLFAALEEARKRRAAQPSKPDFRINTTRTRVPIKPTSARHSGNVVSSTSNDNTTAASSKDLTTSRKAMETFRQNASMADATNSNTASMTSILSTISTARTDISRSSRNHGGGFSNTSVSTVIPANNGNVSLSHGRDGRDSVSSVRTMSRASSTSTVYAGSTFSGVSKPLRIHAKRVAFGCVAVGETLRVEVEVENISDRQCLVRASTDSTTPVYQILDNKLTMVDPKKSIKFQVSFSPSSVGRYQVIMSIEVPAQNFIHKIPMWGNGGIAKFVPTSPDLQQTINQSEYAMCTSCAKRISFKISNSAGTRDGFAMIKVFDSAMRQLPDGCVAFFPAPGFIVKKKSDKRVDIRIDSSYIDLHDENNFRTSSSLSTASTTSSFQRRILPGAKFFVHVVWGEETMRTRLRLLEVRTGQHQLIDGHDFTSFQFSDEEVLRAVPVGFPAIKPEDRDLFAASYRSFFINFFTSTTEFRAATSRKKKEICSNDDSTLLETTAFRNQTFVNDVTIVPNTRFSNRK
B2: Spindle-defective protein 2 (Caenorhabditis elegans), P91870 (parent)
chain: B1 partner
partner: B1 chain
B3: Serine/threonine-protein kinase PLK4 (Mus musculus), Q64702-1 (parent)
chain: MAACIGERIEDFKVGNLLGKGSFAGVYRAESIHTGLEVAIKMIDKKAMYKAGMVQRVQNEVKIHCQLKHPSVLELYNYFEDNNYVYLVLEMCHNGEMNRYLKNRMKPFSEREARHFMHQIITGMLYLHSHGILHRDLTLSNILLTRNMNIKIADFGLATQLNMPHEKHYTLCGTPNYISPEIATRSAHGLESDIWSLGCMFYTLLIGRPPFDTDTVKNTLNKVVLADYEMPAFLSREAQDLIHQLLRRNPADRLSLSSVLDHPFMSRNPSPKSKDVGTVEDSMDSGHATLSTTITASSGTSLSGSLLDRRLLVGQPLPNKITVFQKNKNSSDFSSGDGSNFCTQWGNPEQEANSRGRGRVIEDAEERPHSRYLRRAHSSDRASPSNQSRAKTYSVERCHSVEMLSKPRRSLDENQHSSNHHCLGKTPFPFADQTPQMEMVQQWFGNLQMNAHLGETNEHHTVSPNRDFQDYPDLQDTLRNAWTDTRASKNADTSANVHAVKQLSAMKYMSAHHHKPEVMPQEPGLHPHSEQSKNRSMESTLGYQKPTLRSITSPLIAHRLKPIRQKTKKAVVSILDSEEVCVELLRECASEGYVKEVLQISSDGTMITVYYPNDGRGFPLADRPPLPTDNISRYSFDNLPEKYWRKYQYASRFIQLVRSKTPKITYFTRYAKCILMENSPGADFEVWFYDGAKIHKTENLIHIIEKTGISYNLKNENEVTSLKEEVKVYMDHANEGHRICLSLESVISEEEKRSRGSSFFPIIVGRKPGNTSSPKALSAPPVDPSCCKGEQASASRLSVNSAAFPTQSPGLSPSTVTVEGLGHTATATGTGVSSSLPKSAQLLKSVFVKNVGWATQLTSGAVWVQFNDGSQLVVQAGVSSISYTSPDGQTTRYGENEKLPEYIKQKLQCLSSILLMFSNPTPNFQ

Variants of: B1
Conditions: with spd2_caeel spd-2, P91870

| Variant | effect of a mutation on the interaction |
| --- | --- |
| K500E | disrupting interaction strength |
| R470E | decreasing interaction strength |
| K454E | decreasing interaction strength |
| R471E | decreasing interaction strength |
| R463E | disrupting interaction strength |
| R489E;K491E | disrupting interaction strength |
| R470E;R471E | disrupting interaction strength |

Variants of: B2
Conditions: with zyg1_caeel zyg-1, Q9GT24

| Variant | effect of a mutation on the interaction |
| --- | --- |
| E12K;E15K;E16K;E18K;D19K | disrupting interaction strength |
| E38K;E40K;E41K;E42K;E43K | disrupting interaction strength |

Variants of: B2
Conditions: with zyg1_caeel zyg-1, Q9GT24
Remark: another data set of the same source

| Variant | effect of a mutation on the interaction |
| --- | --- |
| E38K;E40K;E41K;E42K;E43K | decreasing interaction strength |
| D26K;E28K;D34K;D36K | decreasing interaction strength |

Variants of: B3
Conditions: with Cep192, E9Q4Y4
Cep192, E9Q4Y4, sequence (E9Q4Y4 entry or part of it): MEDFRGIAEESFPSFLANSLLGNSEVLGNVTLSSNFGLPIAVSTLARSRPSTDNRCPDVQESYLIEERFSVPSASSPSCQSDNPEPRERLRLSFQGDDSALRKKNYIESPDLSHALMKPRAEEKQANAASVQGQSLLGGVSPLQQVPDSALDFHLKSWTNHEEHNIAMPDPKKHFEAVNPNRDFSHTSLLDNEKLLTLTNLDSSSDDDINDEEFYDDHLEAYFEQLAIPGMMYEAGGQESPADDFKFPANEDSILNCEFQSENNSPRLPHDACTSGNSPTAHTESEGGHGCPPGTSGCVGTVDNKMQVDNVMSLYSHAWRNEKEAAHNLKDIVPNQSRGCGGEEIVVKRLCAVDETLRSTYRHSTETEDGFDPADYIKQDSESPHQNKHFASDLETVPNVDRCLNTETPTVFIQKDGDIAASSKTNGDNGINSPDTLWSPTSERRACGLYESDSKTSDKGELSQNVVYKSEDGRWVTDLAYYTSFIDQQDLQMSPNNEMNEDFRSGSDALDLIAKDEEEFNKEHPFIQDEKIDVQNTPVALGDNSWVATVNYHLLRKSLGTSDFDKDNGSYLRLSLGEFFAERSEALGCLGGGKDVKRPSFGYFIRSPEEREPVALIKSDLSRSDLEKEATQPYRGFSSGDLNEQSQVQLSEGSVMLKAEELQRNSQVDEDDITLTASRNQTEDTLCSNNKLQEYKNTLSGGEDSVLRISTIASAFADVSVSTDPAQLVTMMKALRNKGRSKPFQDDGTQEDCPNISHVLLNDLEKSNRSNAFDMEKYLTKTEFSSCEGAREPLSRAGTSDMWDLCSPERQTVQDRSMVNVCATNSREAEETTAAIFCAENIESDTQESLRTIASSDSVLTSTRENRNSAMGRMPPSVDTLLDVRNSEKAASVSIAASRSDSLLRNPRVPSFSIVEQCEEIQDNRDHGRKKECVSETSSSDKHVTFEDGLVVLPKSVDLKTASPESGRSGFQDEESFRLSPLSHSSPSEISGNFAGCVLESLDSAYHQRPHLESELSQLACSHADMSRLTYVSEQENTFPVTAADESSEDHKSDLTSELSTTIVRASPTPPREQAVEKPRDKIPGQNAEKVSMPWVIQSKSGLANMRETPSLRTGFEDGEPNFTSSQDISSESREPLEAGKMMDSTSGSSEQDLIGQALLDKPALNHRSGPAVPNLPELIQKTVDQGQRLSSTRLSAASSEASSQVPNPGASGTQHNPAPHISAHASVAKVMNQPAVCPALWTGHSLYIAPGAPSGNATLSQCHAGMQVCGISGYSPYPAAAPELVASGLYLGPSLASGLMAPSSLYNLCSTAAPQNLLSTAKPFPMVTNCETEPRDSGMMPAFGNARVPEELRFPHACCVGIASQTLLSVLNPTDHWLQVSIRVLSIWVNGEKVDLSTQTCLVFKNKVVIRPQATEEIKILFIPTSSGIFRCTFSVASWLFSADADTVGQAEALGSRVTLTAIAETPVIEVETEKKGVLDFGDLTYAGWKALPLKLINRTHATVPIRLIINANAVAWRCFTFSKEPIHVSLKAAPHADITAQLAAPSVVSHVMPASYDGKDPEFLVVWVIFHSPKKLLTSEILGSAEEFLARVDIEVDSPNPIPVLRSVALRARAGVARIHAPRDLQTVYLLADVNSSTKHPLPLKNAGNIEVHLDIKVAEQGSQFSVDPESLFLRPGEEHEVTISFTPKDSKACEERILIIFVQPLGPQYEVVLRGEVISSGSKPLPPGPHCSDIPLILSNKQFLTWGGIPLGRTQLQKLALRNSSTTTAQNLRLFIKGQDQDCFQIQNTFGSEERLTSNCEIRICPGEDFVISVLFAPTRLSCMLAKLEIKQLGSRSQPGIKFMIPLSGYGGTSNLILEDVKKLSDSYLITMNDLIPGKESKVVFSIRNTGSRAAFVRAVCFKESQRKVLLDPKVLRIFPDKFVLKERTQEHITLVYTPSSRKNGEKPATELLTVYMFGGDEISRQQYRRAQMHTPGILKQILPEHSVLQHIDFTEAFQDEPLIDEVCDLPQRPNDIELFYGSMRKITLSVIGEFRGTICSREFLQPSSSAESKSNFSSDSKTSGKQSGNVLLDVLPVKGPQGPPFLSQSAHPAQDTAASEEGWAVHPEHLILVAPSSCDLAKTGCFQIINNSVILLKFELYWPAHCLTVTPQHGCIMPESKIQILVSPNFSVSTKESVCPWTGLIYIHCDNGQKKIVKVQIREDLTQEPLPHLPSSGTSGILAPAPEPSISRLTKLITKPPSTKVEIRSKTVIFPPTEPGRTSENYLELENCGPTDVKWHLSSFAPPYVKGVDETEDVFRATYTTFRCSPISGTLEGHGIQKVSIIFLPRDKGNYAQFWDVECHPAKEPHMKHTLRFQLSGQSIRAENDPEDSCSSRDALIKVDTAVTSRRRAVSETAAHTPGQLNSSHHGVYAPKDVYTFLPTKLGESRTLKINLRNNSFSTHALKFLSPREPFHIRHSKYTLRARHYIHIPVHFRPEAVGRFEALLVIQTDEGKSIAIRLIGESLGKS

| Variant | effect of a mutation on the interaction |
| --- | --- |
| K693E | decreasing interaction strength |
| K660E | increasing interaction strength |
| R564E;K566E | increasing interaction strength |
| R766E;K767E | decreasing interaction strength |
| K672E | decreasing interaction strength |

Variants of: B3
Conditions: with ce152_mouse Cep152, A2AUM9
ce152_mouse Cep152, A2AUM9, sequence (A2AUM9 whole entry): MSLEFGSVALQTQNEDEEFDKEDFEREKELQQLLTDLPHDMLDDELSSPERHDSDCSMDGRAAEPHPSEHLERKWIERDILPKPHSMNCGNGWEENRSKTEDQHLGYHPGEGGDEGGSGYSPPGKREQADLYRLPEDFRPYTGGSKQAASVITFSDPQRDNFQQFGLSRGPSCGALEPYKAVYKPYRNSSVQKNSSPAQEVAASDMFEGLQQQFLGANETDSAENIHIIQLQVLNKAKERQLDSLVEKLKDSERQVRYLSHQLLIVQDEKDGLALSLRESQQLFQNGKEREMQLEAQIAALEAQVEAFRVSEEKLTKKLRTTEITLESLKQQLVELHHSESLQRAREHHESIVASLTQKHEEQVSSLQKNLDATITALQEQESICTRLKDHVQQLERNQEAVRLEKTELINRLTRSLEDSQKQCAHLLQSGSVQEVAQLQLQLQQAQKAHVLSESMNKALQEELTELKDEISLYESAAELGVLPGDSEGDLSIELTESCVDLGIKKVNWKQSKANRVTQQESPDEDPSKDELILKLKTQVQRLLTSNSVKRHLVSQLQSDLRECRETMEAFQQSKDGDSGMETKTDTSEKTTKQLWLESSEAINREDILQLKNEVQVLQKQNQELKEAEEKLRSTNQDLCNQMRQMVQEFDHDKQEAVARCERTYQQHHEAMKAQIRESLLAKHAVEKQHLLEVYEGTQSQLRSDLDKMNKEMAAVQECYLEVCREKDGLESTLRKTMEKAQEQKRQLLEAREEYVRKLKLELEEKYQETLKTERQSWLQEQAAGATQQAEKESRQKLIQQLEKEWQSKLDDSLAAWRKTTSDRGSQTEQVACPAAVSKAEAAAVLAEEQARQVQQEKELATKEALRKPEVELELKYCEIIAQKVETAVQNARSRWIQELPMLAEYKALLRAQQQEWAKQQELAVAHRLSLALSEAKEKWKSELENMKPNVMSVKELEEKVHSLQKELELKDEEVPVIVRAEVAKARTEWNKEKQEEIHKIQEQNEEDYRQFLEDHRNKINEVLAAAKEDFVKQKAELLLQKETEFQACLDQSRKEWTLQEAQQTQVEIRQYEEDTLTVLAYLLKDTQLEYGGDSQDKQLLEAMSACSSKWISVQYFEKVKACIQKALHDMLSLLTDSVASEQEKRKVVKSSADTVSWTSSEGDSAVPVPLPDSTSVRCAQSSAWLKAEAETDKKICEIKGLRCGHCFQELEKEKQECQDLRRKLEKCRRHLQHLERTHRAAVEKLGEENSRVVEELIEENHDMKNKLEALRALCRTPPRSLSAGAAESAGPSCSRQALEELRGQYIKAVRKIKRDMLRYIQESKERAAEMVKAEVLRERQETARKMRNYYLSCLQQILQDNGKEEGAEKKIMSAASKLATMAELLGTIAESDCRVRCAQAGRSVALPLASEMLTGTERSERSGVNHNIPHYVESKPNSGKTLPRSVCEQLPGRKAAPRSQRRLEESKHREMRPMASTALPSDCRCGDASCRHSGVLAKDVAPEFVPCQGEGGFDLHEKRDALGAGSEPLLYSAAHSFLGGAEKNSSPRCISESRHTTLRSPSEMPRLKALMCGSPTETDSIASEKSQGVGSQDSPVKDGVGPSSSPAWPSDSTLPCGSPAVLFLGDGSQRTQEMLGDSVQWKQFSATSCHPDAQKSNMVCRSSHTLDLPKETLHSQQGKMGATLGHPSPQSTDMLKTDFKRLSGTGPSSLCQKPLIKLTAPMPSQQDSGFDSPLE

| Variant | effect of a mutation on the interaction |
| --- | --- |
| K693E | decreasing interaction strength |
| K660E | decreasing interaction strength |
| R652E | decreasing interaction strength |
| K568E;K569E | increasing interaction strength |
| R766E;K767E | decreasing interaction strength |
| K672E | decreasing interaction strength |
